Results: patent US20210300999A1

B1: COV2-2391 (antibody, V domains shown)
VH: QVQLVQSGAEVKKPGASVKVSCKASGYTFGSFDINWVRQATGQGLEWMGRMNSNSGNTAYAQKFQGRVTMTRDTSTNTAYMELSSLRSEDTAMYYCARMRSGWPTHGRPDDFWGRGTLVTVSS
VL: QSVLTQAPSASGTPGQRVTISCSGSNSNIGSYTINWYQQLPGTAPKLLIYGNDQRTSGVPDRFSGSKFGTSASLAISGLQSEDENNYYCAVWDDSLNGLVFGGGTKLTVL
B2: COV2-2096 (antibody, V domains shown)
VH: B1 VH
VL: B1 VL
B3: COV2-2165 (antibody, V domains shown)
VH: EVQLVESGGGLVQPGGSLRLSCAASGLTVRSNYMTWVRQTPGKGLEWVSVIYSGGSTFYADSVKGRFTISRDNSKNTVYLQMNSLRAEDTAVYYCARDLVTYGLDVWGQGTTVTVSS
VL: DIQLTQSPSFLSASVGDRVTITCRASQGISNYLAWYQQKPGTAPNLLIYAASTLQSGVPSRFSGSGSGTEFTLTISSLQPEDFATYYCQLLNSHPLTFGQGTRLEIK
B4: COV2-2952 (antibody, V domains shown)
VH: B3 VH
VL: B3 VL

Tests used:
Conditions in all cases: remark: other sources report otherwise
[1] = molecular target: SARS-CoV-2 Spike trimer (Table A) (SARS-CoV-2), P0DTC2; assay: ELISA, purified IgG
[2] = molecular target: T1, SARS-CoV-2 prefusion-stabilized trimeric spike ectodomain (S2Pecto) (SARS-CoV-2), P0DTC2; assay: ELISA on coated antigen
[3] = molecular target: T1, SARS-CoV-2 prefusion-stabilized …; assay: hACE2 blocking ELISA on coated S2Pecto; competitor hACE2

Binder | ELISA OD 450 nm [1] [OD 450 nm] | EC50 [2] [ng/mL] | IC50 [3] [µg/mL]
B1 | 3.57 | – | –
B2 | 4.3 | 1 | 0.067
B3 | 4.2 | 1.4 | 0.062
B4 | 3.54 | – | –
